Numbering of substitutions follows the chain as printed. Names may count otherwise.
B1: OmpC (wild type, in the purified OmpC-MlaA-His complex) (natural protein, E. coli)
chain: AEVYNKDGNKLDLYGKVDGLHYFSDNKDVDGDQTYMRLGFKGETQVTDQLTGYGQWEYQIQGNSAENENNSWTRVAFAGLKFQDVGSFDYGRNYGVVYDVTSWTDVLPEFGGDTYGSDNFMQQRGNGFATYRNTDFFGLVDGLNFAVQYQGKNGNPSGEGFTSGVTNNGRDALRQNGDGVGGSITYDYEGFGIGGAISSSKRTDAQNTAAYIGNGDRAETYTGGLKYDANNIYLAAQYTQTYNATRVGSLGWANKAQNFEAVAQYQFDFGLRPSLAYLQSKGKNLGRGYDDEDILKYVDVGATYYFNKNMSTYVDYKINLLDDNQFTRDAGINTDNIVALGLVYQF
B2: OmpC_(R92A) (natural protein, E. coli, UniProt P06996 22-367, looked up)
chain: B1 chain with R92A
B3: OmpC_(R92L) (natural protein, E. coli, UniProt P06996 22-367, looked up)
chain: B1 chain with R92L
B4: OmpCG19W/R92L (natural protein, E. coli, UniProt P06996 22-367, looked up)
chain: B1 chain with G19W, R92L
B5: OmpC_(G19W) (natural protein, E. coli, UniProt P06996 22-367, looked up)
chain: B1 chain with G19W
B6: MlaA_(D61-K124) peptide (domain or fragment, E. coli, UniProt P76506 61-124, looked up)
chain: DYVPQPARNGLSNFTGNLEEPAVMVNYFLQGDPYQGMVHFTRFFLNTILGMGGFIDVAGMANPK

How the values were obtained:
SEC-MALS = biological target: the molecule itself; experiment: SEC-MALS
[1] = biological target: MlaA-His (from dmlaA-His plasmids, in purified OmpC-MlaA-His complexes) (E. coli) (UniProt P76506); experiment: SEC-MALS
Sequence of MlaA-His (from dmlaA-His plasmids, in purified OmpC-MlaA-His complexes) (E. coli) (P76506 18-251, one chain of several): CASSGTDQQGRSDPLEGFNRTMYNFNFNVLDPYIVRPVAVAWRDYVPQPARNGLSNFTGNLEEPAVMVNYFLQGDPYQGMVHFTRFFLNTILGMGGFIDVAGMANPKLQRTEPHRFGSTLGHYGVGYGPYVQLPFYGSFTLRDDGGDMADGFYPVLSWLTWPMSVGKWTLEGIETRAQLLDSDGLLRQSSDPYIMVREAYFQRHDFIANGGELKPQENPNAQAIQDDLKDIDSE

[2] = biological target: the molecule itself; experiment: temperature titration with SDS-PAGE
[3] = biological target: B1; experiment: SEC

Row | Binder | binding result [2] | other results
1 | B1 |  | stoichiometry N (SEC-MALS): 3; stoichiometry N (MlaA per OmpC trimer) [1]: 1
2 | B2 | binds | 
3 | B3 | binds | 
4 | B4 | binds | 
5 | B5 | binds | 
6 | B6 |  | binding result [3]: binds
